From patent US20160200782A1 (MOERAE MATRIX, published 2016)

T1: IRAK4(h) (human, UniProt Q9NWZ3 1-460, limits assumed)
T1 sequence (looked up): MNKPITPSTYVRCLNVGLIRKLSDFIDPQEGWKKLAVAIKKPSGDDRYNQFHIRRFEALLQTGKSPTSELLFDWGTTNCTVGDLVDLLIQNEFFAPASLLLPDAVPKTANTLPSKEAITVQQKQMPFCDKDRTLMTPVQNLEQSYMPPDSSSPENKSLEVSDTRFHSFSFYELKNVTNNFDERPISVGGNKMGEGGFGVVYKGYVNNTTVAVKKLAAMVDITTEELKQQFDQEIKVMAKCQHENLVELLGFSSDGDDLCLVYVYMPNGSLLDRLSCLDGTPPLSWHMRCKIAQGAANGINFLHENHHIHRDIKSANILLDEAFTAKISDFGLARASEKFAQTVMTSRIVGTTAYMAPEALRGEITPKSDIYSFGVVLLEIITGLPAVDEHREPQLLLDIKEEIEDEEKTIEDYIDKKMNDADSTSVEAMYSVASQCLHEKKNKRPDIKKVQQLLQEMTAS

T2: PhKγ2(h) (human, UniProt P15735 1-406, limits assumed)
T2 sequence (looked up): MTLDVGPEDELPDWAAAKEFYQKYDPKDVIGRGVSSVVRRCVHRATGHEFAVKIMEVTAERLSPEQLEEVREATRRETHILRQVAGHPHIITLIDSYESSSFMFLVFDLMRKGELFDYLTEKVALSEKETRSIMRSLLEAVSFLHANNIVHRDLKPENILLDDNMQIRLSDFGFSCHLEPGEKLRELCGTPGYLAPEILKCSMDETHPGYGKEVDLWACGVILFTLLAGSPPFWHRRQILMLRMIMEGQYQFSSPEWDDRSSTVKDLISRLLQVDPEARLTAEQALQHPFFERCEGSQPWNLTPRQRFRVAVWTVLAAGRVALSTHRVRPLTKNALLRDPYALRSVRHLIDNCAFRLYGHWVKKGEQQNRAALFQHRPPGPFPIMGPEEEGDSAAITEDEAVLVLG

T3: DRAK1(h) (human, UniProt Q9UEE5 1-414, limits assumed)
T3 sequence (looked up): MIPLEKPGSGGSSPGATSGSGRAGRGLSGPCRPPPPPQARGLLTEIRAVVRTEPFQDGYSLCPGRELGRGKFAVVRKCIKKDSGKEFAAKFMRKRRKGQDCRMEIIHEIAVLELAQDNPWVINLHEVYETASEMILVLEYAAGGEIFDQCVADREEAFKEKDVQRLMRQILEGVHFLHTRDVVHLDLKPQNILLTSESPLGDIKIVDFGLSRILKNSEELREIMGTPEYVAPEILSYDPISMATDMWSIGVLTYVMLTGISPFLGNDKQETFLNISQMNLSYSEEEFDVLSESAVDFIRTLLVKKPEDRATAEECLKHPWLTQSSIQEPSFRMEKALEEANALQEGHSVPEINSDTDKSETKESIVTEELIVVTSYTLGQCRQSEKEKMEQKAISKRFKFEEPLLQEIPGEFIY


Legend:
Test in all cases: cell-based or functional assay
Ab1(Y253F)(h) = Ab1(Y253F)(h) (human, UniProt P00519 27-1130, limits assumed)
IGF-1R(h) = IGF-1R(h) (human, UniProt P08069 959-1367, limits assumed)
IRAK4(h) = target: T1, IRAK4(h)
Lck(h) activated = Lck(h) activated (human, UniProt P06239 1-509, limits assumed)
Arg(h) = Arg(h) (human, UniProt P42684 38-1182, limits assumed)
Mnk2(h) = Mnk2(h) (human, UniProt Q9HBH9 1-465, limits assumed)
MSK2(h) = MSK2(h) (human, UniProt O75676 1-772, limits assumed)
mTOR(h) = mTOR(h) (human, UniProt P42345 1362-2549)
PhKγ2(h) = target: T2, PhKγ2(h)
Pim-3(h) = Pim-3(h) (human, UniProt Q86V86 1-326)
ROCK-II(h) = ROCK-II(h) (human, UniProt O75116 11-552)
Src(T341M)(h) = Src(T341M)(h) (human, UniProt P12931 1-536, limits assumed)
VRK2(h) = VRK2(h) (human, UniProt Q86Y07 1-508, limits assumed)
BTK(R28H)(h) = BTK(R28H)(h) (human, UniProt Q06187 1-659)
CDK7/cyclinH/MAT1(h) = CDK7/cyclinH/MAT1(h) (human, UniProt P50613 1-346; P51946 1-323; P51948 1-309)
CHK2(I157T)(h) = CHK2(I157T)(h) (human, UniProt O96017 5-543, limits assumed)
DAPK1(h) = DAPK1(h) (human, UniProt P53355 1-289, limits assumed)
DRAK1(h) = target: T3, DRAK1(h)
EGFR(T790M,L858R)(h) = EGFR(T790M,L858R)(h) (human, UniProt P00533 696-1210, limits assumed)
EphA7(h) = EphA7(h) (human, UniProt Q15375 577-998, limits assumed)
FGFR2(h) = FGFR2(h) (human, UniProt P21802 456-770, limits assumed)

Binder | % activity (Ab1(Y253F)(h)) [%] | % activity (IGF-1R(h)) [%] | % activity (IRAK4(h)) [%] | % activity (Lck(h) activated) [%] | % activity (Arg(h)) [%] | % activity (Mnk2(h)) [%] | % activity (MSK2(h)) [%] | % activity (mTOR(h)) [%] | % activity (PhKγ2(h)) [%] | % activity (Pim-3(h)) [%] | % activity (ROCK-II(h)) [%] | % activity (Src(T341M)(h)) [%] | % activity (VRK2(h)) [%] | % activity (BTK(R28H)(h)) [%] | % activity (CDK7/cyclinH/MAT1(h)) [%] | % activity (CHK2(I157T)(h)) [%] | % activity (DAPK1(h)) [%] | % activity (DRAK1(h)) [%] | % activity (EGFR(T790M,L858R)(h)) [%] | % activity (EphA7(h)) [%] | further results
KAFAKLAARLYRKALARQLGVAA [MMI-0400] | 78 | 90 | 59 | 216 | 84 | 86 | 52 | 93 | 38 | 80 | 77 | 76 | 185 | 24 | 47 | 41 | 36 | 14 | 78 | 222 | % activity (FGFR2(h)): 18%
FAKLAARLYRKALARQLGVAA [MMI-0300] | 86 | 119 | 59 | 243 | 72 | 89 | 56 | 91 | 46 | 80 | 74 | 70 | 161 | 74 | 65 | 43 | 46 | 14 | 85 | 159 | % activity (FGFR2(h)): 14%
